These results are taken from US11319530B2, “Host cells and systems for membrane protein expression” (President and Fellows of Harvard College, priority 2015, dated 2022).

B5: FLAG-tagged E. coli DsbAC33A (pFH442: pFH441 C33A-FLAG) (enzyme, UniProt P0AEG4 20-208, looked up)
chain: AQYEDGKQYTTLEKPVAGAPQVLEFFSFFCPHAYQFEEVLHISDNVKKKLPEGVKMTKYHVNFMGGDLGKDLTQAWAVAMALGVEDKVTVPLFEGVQKTQTIRSASDIRDVFINAGIKGEEYDAAWNSFVVKSLVAQQEKAAADVQLRGVPAMFVNGKYQLNPQGMDTSNMDVFVQQYADTVKYLSEKK
notes: by common usage C33 of DsbA is counted on the mature (periplasmic) protein, not on the precursor; Expressed from pBAD43 in E. coli; also called C33A mutant of DsbA; not shown: FLAG tag

Data set [1] has as its target T1, rat VKORc1ΔAAR expressed in FSH231 (Rattus norvegicus, UniProt Q6TEK4, DEL31-33).
T1 construct: expressed in transfected cells; host or cells: E. coli FSH231 (ΔdsbB, yidCT362I, hslVC160Y, malF-lacZ102 reporter), pTrc99a plasmid
T1 sequence (Q6TEK4 with tags, fused parts or gaps DEL31-33): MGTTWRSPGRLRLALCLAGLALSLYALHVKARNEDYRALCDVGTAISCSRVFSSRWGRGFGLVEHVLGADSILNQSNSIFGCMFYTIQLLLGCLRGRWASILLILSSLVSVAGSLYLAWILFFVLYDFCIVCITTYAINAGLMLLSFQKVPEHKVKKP
Briefly: blue/white agar assay in 384 well plates using the β-Gal^dbs reporter (dose-dependent inhibition of VKORc1). Type of data set: cell-based. To be noted: FIG. 4 Panel A; for dose-dependent inhibition of VKORc1: rat VKORc1ΔAAR expressed in E. coli FSH231 (ΔdsbB, yidCT362I, hsIVC160Y).

Data set [2] has as its target B5. Briefly: non-reducing SDS-PAGE of TCA-precipitated proteins of FSH231, immunoblot with anti-T7 or anti-FLAG; mixed disulfide. In general terms: Immunoblotting shows a protein as a band on a membrane.
For data set [3], the target named is B5. Briefly: non-reducing SDS-PAGE immunoblot; mixed disulfide.
For data set [4], the target named is B5. As to the kind of experiment: non-reducing SDS-PAGE of TCA-precipitated proteins of FSH231, immunoblot with anti-T7 or anti-FLAG.
Data set [5] concerns the molecule itself. As to the kind of experiment: immunoblot, FIG. 4 Panel C.
For a further data set, the target named is T2, VKORc1ΔAAR, G60D (Rattus norvegicus, UniProt Q6TEK4, C16A/C85A/C96A/DEL31-33/G60D).
T2 construct: expressed in transfected cells; host or cells: E. coli FSH231 (ΔdsbB, yidCT362I, hslVC160Y), pTrc99a plasmid, co-transformed with pBAD43 (empty, or carrying DsbA or DsbAC33A)
T2 sequence (Q6TEK4 with tags, fused parts or gaps C16A/DEL31-33/G60D/C85A/C96A): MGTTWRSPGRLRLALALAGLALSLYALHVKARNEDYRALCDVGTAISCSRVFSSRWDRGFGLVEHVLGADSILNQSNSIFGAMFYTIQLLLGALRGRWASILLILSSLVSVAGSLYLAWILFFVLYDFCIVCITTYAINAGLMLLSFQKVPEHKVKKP
As to the kind of experiment: motility assay, low agar motility plates of FSH231. Type of data set: cell-based. As to conditions: FSH231 co-expressing VKORc1ΔAAR, G60D and DsbAC33A, in the presence of DsbAwt; FIG. 4 Panel B. How it is done: Bacterial motility was assayed by stabbing a colony into 0.3% minimal medium Agar plates containing M63 salts, 0.2% Glucose, IPTG, and carbenicillin. Motility was examined after two days of growth at 30 C. When using arabinose to induce expression from pBAD promoter, 0.5% glycerol was used instead of glucose in addition to 0.1% NZ to enhance motility.
As expected, the function of VKORc1ΔAAR in disulfide bond formation was dependent on E. coli DsbA, the presumed substrate of the now functional VKORc1ΔAAR. To determine whether VKORc1ΔAAR interacts directly with DsbA in vivo, we used a C33A mutant of DsbA which forms a detectable stable complex with DsbB and asked whether a similar scenario occurs with VKORc1ΔAAR (23). We used the highly expressed VKORc1ΔAAR, G60D lacking all nonessential cysteines expressed in a ΔdsbB, yidCT362I, hsIVC160Y strain (FSH231). […] When TCA-precipitated proteins of FSH231 strain expressing both T7-tagged VKORc1ΔAAR, G60D and FLAG-tagged DsbAC33A are run on a non-reducing SDS-PAGE and probed by either anti-T7 or FLAG tags antibodies, a VKORc1-DsbA complex band around 40 kDa can be seen (FIG. 4., Panel C) that is DTT-sensitive. The complex formation is also observed when using VKORc1 lacking C51, but disappears in the absence of C46 or C132, unless the removal of C132 is accompanied by the removal of C51 (FIG. 4., Panel C). […]

Turning to `O=C1c2ccccc2C(=O)C1c1ccc(Br)cc1` [bromindione], the “dose-dependent inhibition of VKORc1” value in data set [1] is “inhibited”. Further, the “inhibitory effect compared with warfarin” value in data set [1] (rat VKORc1ΔAAR expressed in E. coli FSH231) is given as “stronger inhibitory effects than warfarin”.

With `CC(=O)CC(c1ccccc1)c1c(O)c2ccccc2oc1=O` (stereo not drawn) [warfarin], the “dose-dependent inhibition of VKORc1” value in data set [1] is recorded as “inhibited”.

B1: T7-tagged rat VKORc1ΔAAR, G60D lacking all nonessential cysteines (pFH436: rat VKORc1 C16A ΔA31AR G60D C85A C96A-linker-T7 tag) (enzyme)
chain: MGTTWRSPGRLRLALALAGLALSLYALHVKARNEDYRALCDVGTAISCSRVFSSRWDRGFGLVEHVLGADSILNQSNSIFGAMFYTIQLLLGALRGRWASILLILSSLVSVAGSLYLAWILFFVLYDFCIVCITTYAINAGLMLLSFQKVPEHKVKKPGTGGGSGGGSGS
notes: Expressed in E. coli FSH231 (ΔdsbB, yidCT362I, hslVC160Y); not shown: C-terminal T7 tag
As to B1, the binding result in data set [2] was “binds”.

B2: rat VKORc1 C16A C51A ΔA31AR G60D C85A C96A-linker-T7 tag (pFH438) (enzyme)
chain: MGTTWRSPGRLRLALALAGLALSLYALHVKARNEDYRALCDVGTAISASRVFSSRWDRGFGLVEHVLGADSILNQSNSIFGAMFYTIQLLLGALRGRWASILLILSSLVSVAGSLYLAWILFFVLYDFCIVCITTYAINAGLMLLSFQKVPEHKVKKPGTGGGSGGGSGS
notes: also called VKORc1 lacking C51; not shown: C-terminal T7 tag
Take B2: in data set [3], the binding result is given as “binds”.

B3: rat VKORc1 C16A ΔA31AR G60D C85A C96A C132A-linker-T7 tag (pFH439) (enzyme)
chain: MGTTWRSPGRLRLALALAGLALSLYALHVKARNEDYRALCDVGTAISCSRVFSSRWDRGFGLVEHVLGADSILNQSNSIFGAMFYTIQLLLGALRGRWASILLILSSLVSVAGSLYLAWILFFVLYDFAIVCITTYAINAGLMLLSFQKVPEHKVKKPGTGGGSGGGSGS
notes: also called VKORc1 in the absence of C132; not shown: C-terminal T7 tag
On to B3, for which, in data set [4], the binding result is on record as “no binding”.

B4: rat VKORc1 C16A C51A ΔA31AR G60D C85A C96A C132A-linker-T7 tag (pFH440) (enzyme)
chain: MGTTWRSPGRLRLALALAGLALSLYALHVKARNEDYRALCDVGTAISASRVFSSRWDRGFGLVEHVLGADSILNQSNSIFGAMFYTIQLLLGALRGRWASILLILSSLVSVAGSLYLAWILFFVLYDFAIVCITTYAINAGLMLLSFQKVPEHKVKKPGTGGGSGGGSGS
notes: also called VKORc1 with removal of C132 accompanied by the removal of C51; not shown: C-terminal T7 tag
B4: the binding result in data set [3] is recorded as “binds”.

Regarding B5, the binding result in data set [5] is “binds”.

B6: DsbAC33A: C33A mutant of E. coli DsbA, expressed from pBAD43; forms mixed disulfide with VKORc1 (protein)
chain: AQYEDGKQYTTLEKPVAGAPQVLEFFSFFCPHAYQFEEVLHISDNVKKKLPEGVKMTKYHVNFMGGDLGKDLTQAWAVAMALGVEDKVTVPLFEGVQKTQTIRSASDIRDVFINAGIKGEEYDAAWNSFVVKSLVAQQEKAAADVQLRGVPAMFVNGKYQLNPQGMDTSNMDVFVQQYADTVKYLSEKK
modifications: left off: small tags and cut ends
On to B6, for which, in the data set with VKORc1ΔAAR, G60D, the “inhibition of VKORc1 function (motility)” value is recorded as “inhibits the function of VKORc1”.
